Here are results for one molecule from PMC11840924, “Identifying Allosteric Hotspots in Mycobacterium tuberculosis cAMP Receptor Protein through Structural Homology” (Biochemistry, 2025).

The target of data set [1] is T1, CRPMTB wildtype (Mycobacterium tuberculosis, UniProt P9WMH3 1-224).
T1 sequence: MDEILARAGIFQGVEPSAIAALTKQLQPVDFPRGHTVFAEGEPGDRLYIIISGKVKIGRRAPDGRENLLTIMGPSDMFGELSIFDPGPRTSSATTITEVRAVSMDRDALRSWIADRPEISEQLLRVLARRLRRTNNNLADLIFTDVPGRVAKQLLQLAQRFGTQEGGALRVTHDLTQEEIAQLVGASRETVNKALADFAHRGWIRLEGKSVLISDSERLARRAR
The data set is described as follows: fluorescence anisotropy; no cAMP; specific 1:1 transition; 75 mM KCl, 50 mM HEPES, 1 mM EDTA, pH 7.6; […]; temperature not stated. The note with it: protein: recombinant; tags: His-tag (pET-3a); chain copies: 2; label: fluorescein; blunt. Background: Polarisation of emitted light reports the rotation of a fluorescent probe.

Data set [2] deals with T1, CRPMTB wildtype. The data set is described as follows: fluorescence anisotropy; 1 mM cAMP; specific 1:1 transition; 75 mM KCl, 50 mM HEPES, 1 mM EDTA, pH 7.6; […]; temperature not stated. The note with it: protein: recombinant; tags: His-tag (pET-3a); chain copies: 2; label: fluorescein; blunt.

B1: serC32 full-site promoter (dsDNA)
DNA 1: GCGCGTAGTGTGAACAAGCTCACATGCAAGCC
DNA 2: GGCTTGCATGTGAGCTTGTTCACACTACGCGC
Regarding B1, the Ka in data set [1] is 1.87 ± 0.01 10^8 M-1; in data set [2], 2.81 ± 0.01 10^8 M-1.
